Reference: US20240010733A1

Target: soluble CLEC2D antigen, ecto-domain (Q72-V191, H176C) with C-term Histidine tag (human) (UniProt Q9UHP7)
Experiment: flow cytometry on CLEC2D-coated magnetic beads

Chain of UniProt Q9UHP7 (Q9UHP7 72-191 H176C limits assumed): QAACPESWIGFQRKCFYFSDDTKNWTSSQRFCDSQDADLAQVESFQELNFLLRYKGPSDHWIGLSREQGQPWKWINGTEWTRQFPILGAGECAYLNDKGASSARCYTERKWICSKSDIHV

efficiency of conjugation (antigen-coated beads stained by the antibody): > 90%
Substance: commercial P4500/anti-CLEC2D antibody
